Laboratory results from patent publication US20200171136A1 (SUMITOMO DAINIPPON PHARMA, published 2020).
Read-outs that look alike come from different tables or passages of the source.

Legend:
Assay in all cases: cell-based or functional assay
[1] = target: T1, Endoplasmic reticulum aminopeptidase 1 (ERAP1) (UniProt Q9NZ08 1-941, limits assumed)
[2] = target: T1, Endoplasmic reticulum aminopeptidase 1 …; remark: listed apart in the source
[3] = target: T1, Endoplasmic reticulum aminopeptidase 1 …; remark: listed apart in the source
[4] = target: T1, Endoplasmic reticulum aminopeptidase 1 …; remark: listed apart in the source
[5] = target: T1, Endoplasmic reticulum aminopeptidase 1 …; remark: listed apart in the source
[6] = target: T1, Endoplasmic reticulum aminopeptidase 1 …; remark: listed apart in the source

T1 sequence (Q9NZ08 whole entry): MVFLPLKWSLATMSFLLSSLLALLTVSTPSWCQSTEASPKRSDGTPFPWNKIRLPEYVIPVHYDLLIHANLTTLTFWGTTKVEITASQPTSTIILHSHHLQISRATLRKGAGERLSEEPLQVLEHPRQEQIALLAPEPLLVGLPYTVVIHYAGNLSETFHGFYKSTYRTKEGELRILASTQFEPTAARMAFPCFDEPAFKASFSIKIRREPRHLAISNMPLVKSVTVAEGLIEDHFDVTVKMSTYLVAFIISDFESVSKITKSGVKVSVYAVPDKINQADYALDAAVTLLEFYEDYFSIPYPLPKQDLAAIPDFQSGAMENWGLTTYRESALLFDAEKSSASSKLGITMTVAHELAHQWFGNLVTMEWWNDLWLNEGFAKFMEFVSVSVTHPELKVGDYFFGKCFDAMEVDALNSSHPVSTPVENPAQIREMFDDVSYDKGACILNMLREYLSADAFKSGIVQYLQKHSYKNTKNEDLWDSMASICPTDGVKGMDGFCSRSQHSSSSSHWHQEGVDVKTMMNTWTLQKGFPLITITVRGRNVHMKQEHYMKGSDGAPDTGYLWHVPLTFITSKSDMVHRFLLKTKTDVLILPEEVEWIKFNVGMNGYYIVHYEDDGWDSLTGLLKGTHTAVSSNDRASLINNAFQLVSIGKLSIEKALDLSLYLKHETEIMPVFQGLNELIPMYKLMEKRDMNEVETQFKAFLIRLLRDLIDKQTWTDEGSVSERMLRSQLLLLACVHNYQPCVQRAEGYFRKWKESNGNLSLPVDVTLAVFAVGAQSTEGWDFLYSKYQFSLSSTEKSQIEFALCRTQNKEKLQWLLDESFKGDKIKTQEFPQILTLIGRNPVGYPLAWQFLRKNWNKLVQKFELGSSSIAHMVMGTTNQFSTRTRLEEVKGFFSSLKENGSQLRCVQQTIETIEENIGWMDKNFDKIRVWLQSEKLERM

B1: peptide CGGLYDGMEHL (SEQ ID NO: 164) (peptide)
peptide: CGGLYDGMEHL
With B1 the “formation rate of … (SEQ ID NO: 19)(%)” value [1] was 0%.

B2: peptide CRGLYDGMEHL (SEQ ID NO: 174) (peptide)
peptide: CRGLYDGMEHL
With B2 the “formation rate of … (SEQ ID NO: 19)(%)” value [2] was 0%.

B3: peptide CGLYDGMEHL (SEQ ID NO: 98) (peptide)
peptide: H-CGLYDGMEHL-OH
B3 was tested, and the “formation rate (%) 1 hr later” value [3] was 95.1%, the “formation rate (%) 2 hr later” value [3] was 106% and the “formation rate (%) 4 hr later” value [3] was 100%. For the same binder, the “formation rate (%) 8 hr later” value [3] was 101%.

B4: peptide CLGLYDGMEHL (SEQ ID NO: 90) (peptide)
peptide: CLGLYDGMEHL
In the case of B4, the “formation rate (%) 1 hr later” value [3] is reported as 58.3%, the “formation rate (%) 2 hr later” value [3] is reported as 94.9% and the “formation rate (%) 4 hr later” value [3] is reported as 88.4%. The “formation rate (%) 8 hr later” value [3] was 88.3%.

B5: peptide LCGLYDGMEHL (SEQ ID NO: 193) (peptide)
peptide: LCGLYDGMEHL
B5 was tested, and the “formation rate of … (SEQ ID NO: 19)(%)” value [4] was 0%.

B6: peptide ACVLQELNVTV (SEQ ID NO: 143) (peptide)
peptide: ACVLQELNVTV
B6 was tested, and the “formation rate of … (SEQ ID NO: 43)(%)” value [5] was 1.8%.

B7: peptide CPGLYDGMEHL (SEQ ID NO: 169) (peptide)
peptide: CPGLYDGMEHL
B7 was tested, and the “formation rate of … (SEQ ID NO: 19)(%)” value [1] was 0%.

B8: peptide CSGLYDGMEHL (SEQ ID NO: 177) (peptide)
peptide: CSGLYDGMEHL
In the case of B8, the “formation rate of … (SEQ ID NO: 19)(%)” value [2] is reported as 1.1%.

B9: peptide WCGLYDGMEHL (SEQ ID NO: 182) (peptide)
peptide: WCGLYDGMEHL
For B9, the “formation rate of … (SEQ ID NO: 19)(%)” value [6] was 0%.

B10: peptide CYGLYDGMEHL (SEQ ID NO: 172) (peptide)
peptide: CYGLYDGMEHL
In the case of B10, the “formation rate of … (SEQ ID NO: 19)(%)” value [2] is reported as 0%.

B11: peptide SCGLYDGMEHL (SEQ ID NO: 180) (peptide)
peptide: SCGLYDGMEHL
With B11 the “formation rate of … (SEQ ID NO: 19)(%)” value [6] was 22.2%.

B12: peptide CFGLYDGMEHL (SEQ ID NO: 168) (peptide)
peptide: CFGLYDGMEHL
With B12 the “formation rate of … (SEQ ID NO: 19)(%)” value [1] was 0%.

B13: peptide KCGLYDGMEHL (SEQ ID NO: 194) (peptide)
peptide: KCGLYDGMEHL
With B13 the “formation rate of … (SEQ ID NO: 19)(%)” value [4] was 0%.

B14: peptide GCVLQELNVTV (SEQ ID NO: 149) (peptide)
peptide: GCVLQELNVTV
In the case of B14, the “formation rate of … (SEQ ID NO: 43)(%)” value [5] is reported as 1.1%.

B15: peptide CTGLYDGMEHL (SEQ ID NO: 170) (peptide)
peptide: CTGLYDGMEHL
B15 was tested, and the “formation rate of … (SEQ ID NO: 19)(%)” value [2] was 89.4%.

B16: peptide YCVLQELNVTV (SEQ ID NO: 160) (peptide)
peptide: YCVLQELNVTV
In the case of B16, the “formation rate of … (SEQ ID NO: 43)(%)” value [5] is reported as 0.7%.

B17: peptide SCVLQELNVTV (SEQ ID NO: 157) (peptide)
peptide: SCVLQELNVTV
In the case of B17, the “formation rate of … (SEQ ID NO: 43)(%)” value [5] is reported as 1.3%.

B18: peptide HCGLYDGMEHL (SEQ ID NO: 191) (peptide)
peptide: HCGLYDGMEHL
With B18 the “formation rate of … (SEQ ID NO: 19)(%)” value [4] was 0%.

B19: peptide NCGLYDGMEHL (SEQ ID NO: 187) (peptide)
peptide: NCGLYDGMEHL
B19 was tested, and the “formation rate of … (SEQ ID NO: 19)(%)” value [4] was 18.2%.

B20: peptide TCGLYDGMEHL (SEQ ID NO: 181) (peptide)
peptide: TCGLYDGMEHL
For B20, the “formation rate of … (SEQ ID NO: 19)(%)” value [6] was 7.3%.

B21: peptide CHGLYDGMEHL (SEQ ID NO: 165) (peptide)
peptide: CHGLYDGMEHL
For B21, the “formation rate of … (SEQ ID NO: 19)(%)” value [1] was 0%.

B22: peptide CIGLYDGMEHL (SEQ ID NO: 166) (peptide)
peptide: CIGLYDGMEHL
For B22, the “formation rate of … (SEQ ID NO: 19)(%)” value [1] was 0.4%.

B23: peptide QCGLYDGMEHL (SEQ ID NO: 178) (peptide)
peptide: QCGLYDGMEHL
B23 was tested, and the “formation rate of … (SEQ ID NO: 19)(%)” value [6] was 3.6%.

B24: peptide CDGLYDGMEHL (SEQ ID NO: 176) (peptide)
peptide: CDGLYDGMEHL
In the case of B24, the “formation rate of … (SEQ ID NO: 19)(%)” value [2] is reported as 25%.

B25: peptide CEGLYDGMEHL (SEQ ID NO: 163) (peptide)
peptide: CEGLYDGMEHL
B25 was tested, and the “formation rate of … (SEQ ID NO: 19)(%)” value [1] was 6.2%.

B26: peptide CVLQELNVTV (SEQ ID NO: 99) (peptide)
peptide: CVLQELNVTV
B26 was tested, and the “formation rate (%) 1 hr later” value [3] was 83.4%, the “formation rate (%) 2 hr later” value [3] was 85.6% and the “formation rate (%) 4 hr later” value [3] was 78.8%. The “formation rate (%) 8 hr later” value [3] was 83.9%.

B27: peptide ACGLYDGMEHL (SEQ ID NO: 185) (peptide)
peptide: ACGLYDGMEHL
With B27 the “formation rate of … (SEQ ID NO: 19)(%)” value [6] was 5.2%.

B28: peptide GCGLYDGMEHL (SEQ ID NO: 190) (peptide)
peptide: GCGLYDGMEHL
For B28, the “formation rate of … (SEQ ID NO: 19)(%)” value [4] was 10.4%.

B29: peptide CLVLQELNVTV (SEQ ID NO: 93) (peptide)
peptide: CLVLQELNVTV
In the case of B29, the “formation rate (%) 1 hr later” value [3] is reported as 31.1%, the “formation rate (%) 2 hr later” value [3] is reported as 36.9% and the “formation rate (%) 4 hr later” value [3] is reported as 38.1%. For the same binder, the “formation rate (%) 8 hr later” value [3] was 36.1%.

B30: peptide CMGLYDGMEHL (SEQ ID NO: 91) (peptide)
peptide: CMGLYDGMEHL
With B30 the “formation rate (%) 1 hr later” value [3] was 90.6%, the “formation rate (%) 2 hr later” value [3] was 103% and the “formation rate (%) 4 hr later” value [3] was 96%. For the same binder, the “formation rate (%) 8 hr later” value [3] was 101%.

B31: peptide ECGLYDGMEHL (SEQ ID NO: 189) (peptide)
peptide: ECGLYDGMEHL
For B31, the “formation rate of … (SEQ ID NO: 19)(%)” value [4] was 2.9%.

B32: peptide CVGLYDGMEHL (SEQ ID NO: 173) (peptide)
peptide: CVGLYDGMEHL
In the case of B32, the “formation rate of … (SEQ ID NO: 19)(%)” value [2] is reported as 0%.

B33: peptide YCGLYDGMEHL (SEQ ID NO: 183) (peptide)
peptide: YCGLYDGMEHL
B33 was tested, and the “formation rate of … (SEQ ID NO: 19)(%)” value [6] was 5.7%.

B34: peptide CKGLYDGMEHL (SEQ ID NO: 167) (peptide)
peptide: CKGLYDGMEHL
In the case of B34, the “formation rate of … (SEQ ID NO: 19)(%)” value [1] is reported as 0%.

B35: peptide PCGLYDGMEHL (SEQ ID NO: 179) (peptide)
peptide: PCGLYDGMEHL
For B35, the “formation rate of … (SEQ ID NO: 19)(%)” value [6] was 19.2%.

B36: peptide CMVLQELNVTV (SEQ ID NO: 94) (peptide)
peptide: CMVLQELNVTV
For B36, the “formation rate (%) 1 hr later” value [3] was 28.7%, the “formation rate (%) 2 hr later” value [3] was 34.5% and the “formation rate (%) 4 hr later” value [3] was 36.5%. For the same binder, the “formation rate (%) 8 hr later” value [3] was 36.8%.

B37: peptide RCGLYDGMEHL (SEQ ID NO: 186) (peptide)
peptide: RCGLYDGMEHL
In the case of B37, the “formation rate of … (SEQ ID NO: 19)(%)” value [6] is reported as 0%.

B38: peptide VCGLYDGMEHL (SEQ ID NO: 184) (peptide)
peptide: VCGLYDGMEHL
B38 was tested, and the “formation rate of … (SEQ ID NO: 19)(%)” value [6] was 2.4%.

B39: peptide CAVLQELNVTV (SEQ ID NO: 92) (peptide)
peptide: CAVLQELNVTV
B39 was tested, and the “formation rate (%) 1 hr later” value [3] was 46.1%, the “formation rate (%) 2 hr later” value [3] was 49.9% and the “formation rate (%) 4 hr later” value [3] was 51.3%. For the same binder, the “formation rate (%) 8 hr later” value [3] was 53.5%.

B40: peptide ICGLYDGMEHL (SEQ ID NO: 192) (peptide)
peptide: ICGLYDGMEHL
In the case of B40, the “formation rate of … (SEQ ID NO: 19)(%)” value [4] is reported as 0%.

B41: peptide CWGLYDGMEHL (SEQ ID NO: 171) (peptide)
peptide: CWGLYDGMEHL
For B41, the “formation rate of … (SEQ ID NO: 19)(%)” value [2] was 0%.

B42: peptide CNGLYDGMEHL (SEQ ID NO: 175) (peptide)
peptide: CNGLYDGMEHL
For B42, the “formation rate of … (SEQ ID NO: 19)(%)” value [2] was 82.2%.

B43: peptide CAGLYDGMEHL (SEQ ID NO: 89) (peptide)
peptide: CAGLYDGMEHL
In the case of B43, the “formation rate (%) 1 hr later” value [3] is reported as 87.8%, the “formation rate (%) 2 hr later” value [3] is reported as 99.4% and the “formation rate (%) 4 hr later” value [3] is reported as 103%. For the same binder, the “formation rate (%) 8 hr later” value [3] was 97.5%.

B44: peptide CQGLYDGMEHL (SEQ ID NO: 162) (peptide)
peptide: CQGLYDGMEHL
B44 was tested, and the “formation rate of … (SEQ ID NO: 19)(%)” value [1] was 56.9%.

B45: peptide MCGLYDGMEHL (SEQ ID NO: 195) (peptide)
peptide: MCGLYDGMEHL
For B45, the “formation rate of … (SEQ ID NO: 19)(%)” value [4] was 5.8%.

B46: peptide FCGLYDGMEHL (SEQ ID NO: 196) (peptide)
peptide: FCGLYDGMEHL
For B46, the “formation rate of … (SEQ ID NO: 19)(%)” value [4] was 17.6%.

B47: peptide DCGLYDGMEHL (SEQ ID NO: 188) (peptide)
peptide: DCGLYDGMEHL
With B47 the “formation rate of … (SEQ ID NO: 19)(%)” value [4] was 3.2%.
